Source: the nanobody polyreactivity screen of Harvey et al. (2022)

Experiment: yeast display, Sf9 membrane polyspecificity reagent, FACS + sequencing; frameworks hold sequencing errors
Method in brief: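 Galactose induction of a Saccharomyces cerevisiae BJ5465 synthetic nanobody display library ran 36–48 hours. The cells were then stained for 1 hour at 4 °C with 10% biotinylated, detergent-solubilized Sf9 membrane reagent, pulled down on streptavidin microbeads and FACS-sorted into low and high (top ~1%) gates on expression and reagent-binding fluorescence. Labels for polyreactivity follow the gate of origin.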

Row | Sequence | polyreactivity (PSR sort gate)
1 | QVQLVESGGGLVQAGGSLRLICDASGRIFRSYAMGWYRQAPGKERELVAAINWRGGSTFYADSVKGRFTISRDNAKNTVYLQMNSLKPEDTAVYYCARRGYRQSGDYWGQGTQVTVSS | low polyreactivity
2 | QVQLVDSGGGLVQAGGSLRLSCAASGSTFSHYTMGWYRQAPGKERELVAAINYGGASTYYADSVKGRFTISRDNAKNTVYLQMNSLKPEDTAVYYCAAANRPSEQDNYWGQGTQVTVSS | low polyreactivity
3 | QGQLVESGGGLVQAGGSLRLSCAASGRTFRGNTMGWYRQAPGKERELVATISSRSSSTYYADSVKGRFTISRDNAKNTVYLQMHSLKPEDTAVYYCAVTNPLVRSGYSRYFGRYDYWGQGTQVTVSS | high polyreactivity
4 | QVQLVESGGGLVQAGGSLRLSCSASGFIFTTYAMAWYRQAPGKERELVAAIRNSDGSTYYADSVKGRFTISRDNAKNTVYLQMNSLKPVDTAVYYCAKRYRGEPGRTYGYWGQGTQVTVSS | high polyreactivity
5 | QVQLVESGGGLVQAGGSLRLSCAASGSIFVQYAMGWYRQAPGKERELVATISSSGGSTYYADSVKGRFTISRDNAKNTVYLQMNSLKPEDTAVYYCAADWTLDPSYGYYADDYWGQGTQVTVST | low polyreactivity
6 | QVQLVESGGGLVQAGGSLRLSCAASGITFYVYAMGWYRQAPGKERELVAAISRRGGSTSYADSVKGRFTISRDNAKNTVYLQMNSLKPEDTAVYYCAAGPFYGGIVRRYDYWGQGTQVTVSS | low polyreactivity
7 | QVQLVESGGGLVQAGGSLRLSCAASGSIFTPYAMGWYRQAPGKERELVATISARGGSTYYADSVKGRFTISRDNAKNTVYLQMNSLKPEDTAVYYCNVDYAQRVFLYDYWGQGTQVTVSS | low polyreactivity
8 | QVQLVESGRGLVQAGGSLRLSCAASGRTFAYYAMGWYRQAPGKERELVAGITTGGITNYADSVKGRFTISRDNAKNTVYLEMNRLKPEDTAVYYCAKANLFTYWYPGGNFDSAQSDYWGQGTQVTVSS | low polyreactivity
9 | QVQLVESGAGLVQAGGSLRLSCAASGSTFDGNVMGWYRQEPGKESELVAAISGGGSTNYADSVKGRFTISRDNAKNTVYLQMNSLKPEDTAVYYCATQYWHFPYWQYKYDYWGQGTQVTVSS | low polyreactivity
10 | QVQLVESGGGLVQAGGSLRLSCAASGFTLYEYAMGWYRQAPGKERELVAAISSAGNTNYADSVKGRFTISRDNAKNTVYLQLNSLKPEDTAVYYCAKYRYDYTKTEGGYWGQGTQVTVSS | low polyreactivity
11 | QVQLVESGGGLVQAGGSLRLSCAASGSTFVLYANGWYRQAPGKERELVAASTRRGGDTYYADSVKGRFTISRDNATNTVYLQMNSLKPEDTAVDYCATDYTTYGRYYYWGQGTQVTVSS | low polyreactivity
12 | QVQLVESGGGLVQAGGSLRLSCAASGITFGYYAMGWYRPAPGKERELVAAITYSGGSTYYADSVKGRFTISRDNAKNTVYLQMNCLKPEDTAVYDCAAERYVRVWVAGILHYDYWGQGTQVTVSS | low polyreactivity
13 | QVQLVESGGGLVPAGGSLRLSCAASGRISDLYAMGCYRQAPGKETEVVAGSTWRGGSTYYADSVKGRFTISRDNAKNTVYLQMNSLKPEDTAVYYCNAVWVQQVVGDGKRTWNFWYDYWGQGTQVTVSS | low polyreactivity
14 | QVQLVESGGGLVQAGGSLRLSCAASGSIFVRNAMGWYRQAPGKEREFVATITSSGGTTYYADSVKGRFTISRDNAKNTVYLQMNSLKPDDTAVYYCNADAGWYDWVYYVGRDYWGQGTQVTVSS | low polyreactivity
15 | QVQLVESGGGLVQAGGSLRLSCAASGAIFFFNAMGWYRQAPGKEREFVAAITSSSGRTYYADSVKGRFTISRDNAKNSVYLQMNSLKPEDTAVYSCDADWAWLQWAYDYWGQGTKVTVSS | low polyreactivity
16 | QVQLVETGGGLVQAGGSLRLSCAASVFTFPTYTMGWYRQAPGKEREFVARITKRGGSTYYADSVKGRFTISRVNVKNTVYLQRKCVKPEDTAVYYCDAGFWWSSYGYWGQGSQVTVSS | high polyreactivity
17 | QVQLVESGGGLVQAGGSLRLSCAASGRTFRYYTMGWYRQAPGKEREFVAAISSTGGTYYADSVKGRFTISRDNAKNTVYLLMNSLNPEDTAVYYCAATFIQVVVNVQLYDYDYWGQGTQVTVSS | low polyreactivity
